Here are results for two molecules from publication PMC6329520, “Diversification of DNA binding specificities enabled SREBP transcription regulators to expand the repertoire of cellular functions that they govern in fungi”.

Some results are limits rather than exact numbers.

The target of series [1] is T1, CaHms1 DBD (Candida albicans, UniProt A0A1D8PMZ4 463-685). In words: competition. Conditions: unlabeled competitor vs labeled N1; at least one order of magnitude; Standard EMSA buffer (composition by reference), 90 min, room temperature, 6% polyacrylamide gel in 0.5x TGE; pH and salt not given.
The target in series [2] is T2, AfSrbA DBD (Aspergillus fumigatus, UniProt Q4WIN1 145-266).
T2 sequence: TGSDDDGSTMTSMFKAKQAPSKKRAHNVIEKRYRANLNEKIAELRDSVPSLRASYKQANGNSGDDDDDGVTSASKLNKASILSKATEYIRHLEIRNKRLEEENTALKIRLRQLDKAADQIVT
In words: competition. The following applies: unlabeled competitor vs labeled N1; at least one order of magnitude; Standard EMSA buffer (composition by reference), 90 min, room temperature, 6% polyacrylamide gel in 0.5x TGE; pH and salt not given.

Series [3] concerns the target T1, CaHms1 DBD. In words: EMSA; 0-100 nM protein; Standard EMSA buffer (composition by reference), 90 min, room temperature, 6% polyacrylamide gel in 0.5x TGE; pH and salt not given. The following applies: protein: recombinant; tags: N-terminal 6xHis or 6xHis-MBP (primers: pLIC-H3); chain copies: 2; label: 32P.
Another series addresses T3, CpHms1 DBD (Candida parapsilosis, UniProt G8B9T4 486-659).
T3 sequence: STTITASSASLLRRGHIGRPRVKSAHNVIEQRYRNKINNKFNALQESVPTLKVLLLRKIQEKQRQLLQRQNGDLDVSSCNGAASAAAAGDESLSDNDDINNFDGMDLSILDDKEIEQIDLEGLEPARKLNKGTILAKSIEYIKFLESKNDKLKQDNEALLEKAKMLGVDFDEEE
Described as above. The following applies: protein: recombinant; tags: N-terminal 6xHis or 6xHis-MBP (primers: pbRZ75); chain copies: 2; label: 32P.

For series [4], the target named is T2, AfSrbA DBD. The description is as above. The following applies: protein: recombinant; tags: N-terminal 6xHis or 6xHis-MBP (primers: pLIC-H3); chain copies: 2; label: 32P.
Another series deals with T4, CaCph2 DBD (Candida albicans, UniProt Q59RL7 197-302).
T4 sequence: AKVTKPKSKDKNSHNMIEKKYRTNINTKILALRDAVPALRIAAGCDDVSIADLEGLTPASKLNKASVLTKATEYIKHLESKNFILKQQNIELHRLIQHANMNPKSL
The series is described as follows: competition; little if any discrimination from N3; Standard EMSA buffer (composition by reference), 90 min, room temperature, 6% polyacrylamide gel in 0.5x TGE; pH and salt not given. The following applies: protein: recombinant; tags: N-terminal 6xHis or 6xHis-MBP (primers: pLIC-H3); chain copies: 2; label: 32P.

Take palindromic canonical E-box fragment: the binding signal (fold weaker than N1) in the series with CaHms1 DBD [1] and with AfSrbA DBD [2] was more than 10 in each case.

B1: non-palindromic site fragment (HMS1 cognate site) (dsDNA)
DNA 1: ACAAAAAAAAATCAGGCCATTTGTAATACT
DNA 2: AGTATTACAAATGGCCTGATTTTTTTTTGT
As for B1, the binding result in the series with CaHms1 DBD [3], with CpHms1 DBD, with AfSrbA DBD [4] and with CaCph2 DBD was “binds” each time.
